Experimental data reported in US20040014147A1 (RIGEL PHARMACEUTICALS, published 2004).
Where two headings read alike, the source gives them in different places. One block for each binder: values may come before it. Where no end group is shown, it is not given here.

Assays:
[1] = target: T1, human adenosine kinase (human, UniProt P55263 22-362); experiment: cell-based or functional assay
[2] = target: T1, human adenosine kinase; experiment: cell-based or functional assay; remark: listed apart in the source

T1 sequence (P55263 other isoform, or with tags, fused parts or gaps): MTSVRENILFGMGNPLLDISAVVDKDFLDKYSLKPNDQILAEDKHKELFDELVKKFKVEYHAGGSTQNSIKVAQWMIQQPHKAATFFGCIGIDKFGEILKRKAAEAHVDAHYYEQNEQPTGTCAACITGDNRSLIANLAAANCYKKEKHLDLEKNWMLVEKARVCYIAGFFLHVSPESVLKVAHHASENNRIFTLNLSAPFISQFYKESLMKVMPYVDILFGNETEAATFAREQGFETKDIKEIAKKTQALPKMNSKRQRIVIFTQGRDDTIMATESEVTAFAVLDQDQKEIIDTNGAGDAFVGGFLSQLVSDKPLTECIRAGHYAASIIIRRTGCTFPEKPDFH

B1: peptide AR02E8 wt (peptide, not shown: large carriers)
peptide: DTMQVQCGVCRSGYVVAFWDVGP
modifications: cysteine pairing not given here; also: expressed as GAL4/BFP-linker-peptide fusion, fusion sequences not given here
Reporter Ratio [1]: 2.93 | Reporter Ratio [2]: 1.77 | endogenous ε inhibition ratio [2]: 15.3

Binder: DTMQVQCGVCAGGYVVAFWDVGP (peptide, not shown: large carriers) [peptide AR02E8RS]
Reporter Ratio [1]: 1.46

More lines, now with the values ahead:

Reporter Ratio [1]: 1.07
Binder: DTMQVQCGVCRSGAGVAFWDVGP (peptide, not shown: large carriers) [peptide AR02E8YV]

Reporter Ratio [1]: 1.13
Binder: DTMQVQCGAGRSGYVVAFWDVGP (peptide, not shown: large carriers) [peptide AR02E8VC]
